The assay concerns the target Synaptotagmin II, P29101. As to the kind of experiment: BLI. In general terms: Biolayer interferometry detects binding as a change in optical thickness at a sensor tip.

Synaptotagmin II, P29101, sequence (P29101 40-60): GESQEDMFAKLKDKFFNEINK

B1: BoNT/B HC HC, P10844 (protein)
chain: SEILNNIILNLRYKDNNLIDLSGYGAKVEVYDGVELNDKNQFKLTSSANSKIRVTQNQNIIFNSVFLDFSVSFWIRIPKYKNDGIQNYIHNEYTIINCMKNNSGWKISIRGNRIIWTLIDINGKTKSVFFEYNIREDISEYINRWFFVTITNNLNNAKIYINGKLESNTDIKDIREVIANGEIIFKLDGDIDRTQFIWMKYFSIFNTELSQSNIEERYKIQSYSEYLKDFWGNPLMYNKEYYMFNAGNKNSYIKLKKDSPVGEILTRSKYNQNSKYINYRDLYIGEKFIIRRKSNSQSINDDIVRKEDYIYLDFFNLNQEWRVYTYKYFKKEEEKLFLAPISDSDEFYNTIQIKEYDEQPTYSCQLLFKKDEESTDEIGLIGIHRFYESGIVFEEYKDYFCISKWYLKEVKRKPYNLKLGCNWQFIPKDEGWTE
For orientation: Kd means the equilibrium constant for the complex coming apart. Read a high Kd as a looser complex. B1 had a Kd of 51 µM.

For the origin of these results see paper PMC7077807.
